Source: US7432093B2, “Soluble, functional apoptotic protease-activating factor 1 fragments” (The Trustees of Princeton University, priority 2004, dated 2008)
Entries after “also recorded” stand apart in the source; their conditions may differ.

T1: Apaf-1 (Homo sapiens, UniProt O14727)
T1 sequence (O14727 1-1248): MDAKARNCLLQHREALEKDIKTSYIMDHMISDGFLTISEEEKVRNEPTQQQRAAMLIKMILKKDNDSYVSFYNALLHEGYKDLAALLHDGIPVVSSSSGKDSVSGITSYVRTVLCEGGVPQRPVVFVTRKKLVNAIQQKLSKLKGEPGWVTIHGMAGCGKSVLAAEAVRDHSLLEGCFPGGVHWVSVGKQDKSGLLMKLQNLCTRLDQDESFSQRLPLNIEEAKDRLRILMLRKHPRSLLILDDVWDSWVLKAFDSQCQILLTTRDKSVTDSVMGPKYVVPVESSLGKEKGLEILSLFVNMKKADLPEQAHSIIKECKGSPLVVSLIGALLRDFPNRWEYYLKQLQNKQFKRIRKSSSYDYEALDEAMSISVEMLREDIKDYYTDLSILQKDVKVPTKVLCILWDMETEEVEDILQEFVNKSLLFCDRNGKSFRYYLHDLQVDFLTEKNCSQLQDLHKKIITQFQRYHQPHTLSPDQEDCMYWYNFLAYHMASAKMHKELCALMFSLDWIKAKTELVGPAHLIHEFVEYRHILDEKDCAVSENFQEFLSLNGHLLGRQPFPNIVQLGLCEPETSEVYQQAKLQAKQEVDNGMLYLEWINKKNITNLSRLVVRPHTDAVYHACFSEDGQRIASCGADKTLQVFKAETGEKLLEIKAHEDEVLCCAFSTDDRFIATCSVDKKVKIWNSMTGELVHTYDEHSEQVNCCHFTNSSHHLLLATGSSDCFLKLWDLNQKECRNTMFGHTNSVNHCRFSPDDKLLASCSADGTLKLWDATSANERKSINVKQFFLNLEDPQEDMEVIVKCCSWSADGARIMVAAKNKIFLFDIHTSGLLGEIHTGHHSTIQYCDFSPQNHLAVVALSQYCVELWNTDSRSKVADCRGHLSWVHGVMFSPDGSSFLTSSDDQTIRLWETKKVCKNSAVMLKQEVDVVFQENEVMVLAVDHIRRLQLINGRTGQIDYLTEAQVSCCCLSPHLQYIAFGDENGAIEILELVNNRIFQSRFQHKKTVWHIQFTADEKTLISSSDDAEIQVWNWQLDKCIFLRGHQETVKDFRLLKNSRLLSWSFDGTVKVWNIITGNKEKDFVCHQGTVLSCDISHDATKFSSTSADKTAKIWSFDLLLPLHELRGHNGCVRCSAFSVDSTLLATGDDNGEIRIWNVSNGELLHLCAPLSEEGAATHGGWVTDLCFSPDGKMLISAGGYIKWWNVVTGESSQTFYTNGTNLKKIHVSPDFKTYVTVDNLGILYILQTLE

T2: soluble Apaf-1 fragment (residues 1-591) (Homo sapiens, UniProt O14727)
T2 construct: Leu-Glu-His6 (C); made in house; host or cells: Escherichia coli BL21(DE3), pET29
T2 sequence (O14727 1-591): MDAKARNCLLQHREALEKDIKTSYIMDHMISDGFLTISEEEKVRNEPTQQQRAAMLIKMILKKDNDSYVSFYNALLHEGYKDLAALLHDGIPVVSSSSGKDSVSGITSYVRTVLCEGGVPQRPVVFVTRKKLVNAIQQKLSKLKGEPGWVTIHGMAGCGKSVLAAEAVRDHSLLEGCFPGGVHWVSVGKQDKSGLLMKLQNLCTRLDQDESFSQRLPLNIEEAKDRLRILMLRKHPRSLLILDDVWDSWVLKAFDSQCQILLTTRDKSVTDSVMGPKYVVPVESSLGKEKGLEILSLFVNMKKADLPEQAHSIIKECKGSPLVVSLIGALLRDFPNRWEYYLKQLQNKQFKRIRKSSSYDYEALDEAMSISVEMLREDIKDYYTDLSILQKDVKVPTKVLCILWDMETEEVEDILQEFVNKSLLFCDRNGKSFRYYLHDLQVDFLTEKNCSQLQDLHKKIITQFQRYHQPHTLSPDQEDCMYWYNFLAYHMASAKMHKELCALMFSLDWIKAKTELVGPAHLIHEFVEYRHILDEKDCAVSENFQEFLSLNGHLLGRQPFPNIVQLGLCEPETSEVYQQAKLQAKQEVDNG

T3: caspase-9 activation by the soluble Apaf-1 fragment (Homo sapiens, UniProt O14727)
T3 construct: Leu-Glu-His6 (C); made in house; host or cells: Escherichia coli BL21(DE3), pET29 (both proteins)
T3 sequence (O14727 1-591): T2 sequence (O14727 1-591)
T3 sequence (P55211 1-315 partner limits assumed): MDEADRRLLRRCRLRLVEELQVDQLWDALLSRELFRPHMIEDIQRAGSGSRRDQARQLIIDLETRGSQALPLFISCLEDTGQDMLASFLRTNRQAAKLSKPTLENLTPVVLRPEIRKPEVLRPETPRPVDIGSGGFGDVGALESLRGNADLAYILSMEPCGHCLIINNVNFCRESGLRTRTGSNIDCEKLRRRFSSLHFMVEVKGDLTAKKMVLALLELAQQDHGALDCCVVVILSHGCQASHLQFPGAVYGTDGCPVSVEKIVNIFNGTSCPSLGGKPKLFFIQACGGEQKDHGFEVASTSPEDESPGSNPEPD
T3 sequence (P55211 331-416 partner limits assumed): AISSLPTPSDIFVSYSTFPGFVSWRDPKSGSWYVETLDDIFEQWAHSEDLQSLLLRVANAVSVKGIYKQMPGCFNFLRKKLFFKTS

B1: 1-591: soluble human Apaf-1 fragment, residues 1-591 (SEQ ID NO: 1), expressed in E. coli BL21(DE3) with C-terminal Leu-Glu-His6 (protein, listed as Homo sapiens)
chain: T2 sequence (O14727 1-591)
modifications: C-terminal Leu-Glu-His6 tag

What was measured:
Apaf-1 = molecular target: T1, Apaf-1; settings: observed by others, explained by the structure; cited from earlier work
[1] = format: physicochemical, E. coli
Method: Preferably, solubility of the fragment is assessed in a lysate of a bacterial culture used to produce the fragment at a concentration of at least 1 milligram per liter of bacterial culture.
All constructs for protein expression were generated using a standard PCR-based cloning strategy, and the identity of individual clones was verified by double-stranded plasmid sequencing. A soluble Apaf-1 fragment (residues 1-591, sequence (SEQ ID NO: 1) shown in FIG. 1) was over-expressed in Escherichia coli strain BL21(DE3) using plasmid vector pET29 having the nucleotide sequence described by Jiang et al. (2000, J. Biol. Chem. 275:31199-31203) operatively ligated therein. The coding sequence included an additional sequence encoding eight amino acid residues at its carboxy-terminal end (i.e., linked to residue 591 in the translated protein). These residues (Leu-Glu-His6) included a nickel-binding hexa-histidine sequence used for metal affinity chromatographic purification of the expressed protein. Soluble Apaf-1 was purified from the cell lysate using a Ni-NTA (nitrilotriacetic acid-ligated nickel; Qiagen) chromatography column. Dithiothreitol (DTT) and ethylenediamine tetraacetic acid (EDTA) were added to the eluted fraction in final concentrations of 5 millimolar each. After incubation for 30 minutes on ice, the protein solution was applied to an anion-exchange column (Source-15Q, Pharmacia) for further purification.

[2] = molecular target: T2, soluble Apaf-1 fragment (residues 1-591); assay: ATPase assay (TLC, conversion of (alpha-32P)ATP to ADP); format: biochemical
Method: ATPase activity was determined using a thin layer chromatography (TLC) assay designed to quantitatively measure the conversion of (alpha-^32P)ATP to ADP. Reactions were initiated by mixing the soluble Apaf-1 fragment at a final concentration of 2 micromolar with a solution containing 20 millimolar HEPES, pH 7.5, 10 millimolar DTT, 10 micromolar magnesium chloride, 0.1 micromolar (alpha-^32P)ATP, and 8 micromolar ATP. The reaction was incubated at room temperature for the indicated duration and then quenched by addition of an equal volume of developing solvent (1 molar formic acid, 0.5 molar LiCl). Samples were evaluated based on the differential mobility of ATP versus ADP on TLC using polyethyleneimine-cellulose F plates.

[3] = molecular target: T3, caspase-9 activation by the soluble Apaf-1 fragment; assay: Caspase-9 activation assay (fluorogenic, LEHD-AMC); format: biochemical; settings: absence of ATP and of the apoptosome
Method: A fluorogenic assay was developed to monitor caspase-9 activation by the soluble Apaf-1 fragment. […] Then, caspase-9 and Apaf-1 were added to a final volume of 200 microliter and final concentrations of 0.2 micromolar and 2 micromolar, respectively. After incubation for 5 minutes at room temperature, the caspase-9 substrate LEHD-AMC (a tetrapeptide coupled to 7-amino […]) was added to the reaction at a final concentration of 200 micromolar. The conversion of the fluorogenic substrate was then measured using a Hitachi F2500 fluorescence spectrophotometer with an excitation wavelength of 380 nanometers and a fluorescence detection wavelength of 440 nanometers.

| Molecule | activation of Apaf-1 (Apaf-1) | Solubility [1] | solubility and solution behavior (in words) [1] | ATPase activity (appearance of ADP on TLC) ([2]; 2 micromolar fragment, magnesium present, room temperature, FIG. 6A) | ATPase activity on incubation with EDTA ([2]; EDTA added (magnesium removed), FIG. 6A lane 3) | catalytic activity of caspase-9 in the presence of Apaf-1 [3] |
| --- | --- | --- | --- | --- | --- | --- |
| Nc1nc2c(ncn2[C@@H]2O[C@H](COP(=O)(O)OP(=O)(O)OP(=O)(O)O)[C@@H](O)[C@H]2O)c(=O)[nH]1 [GTP] | does not activate Apaf-1 |  |  |  |  |  |
| B1 |  | ++++ | good solubility and solution behavior | exhibited ATPase activity | abrogation of the observed ATPase activity | significantly and reproducibly elevated; also recorded: significantly improved the caspase catalytic activity |
